Test results reported in patent CN111620945A.

Assays:
[1] = biological target: T1, 重组SARS-CoV-2刺突蛋白胞外区 (extra cellular domain of spike protein, S-ECD) (SARS-CoV-2), P0DTC2; experiment: SPR, Biacore 8K, S-ECD immobilised on a CM5 chip, antibody 125-7.8 nM; details: remark: other sources report otherwise
[2] = biological target: T1, 重组SARS-CoV-2刺突蛋白胞外区 (extra cellular …); experiment: indirect ELISA, S-ECD coated at 1 μg/ml, end-point titre; details: remark: other sources report otherwise

B1: FC05 (antibody)
chain 1: EVQLLEQSGAEVKKPGASVRVSCKVSGYTLPEVAMHWVRQAPGKGLEWMGGFDPEDGETIYAQKFQGRVTMTEDTSTDTAYMELSSLRSEDTAVYYCATTTPFSSSFWFDPWGQGTLVTVSS
chain 2: QSVLTQAPSVSGAPGQKVTISCSGSSSNIGNNYVSWYQQLPGTAPKLLIYDNNKRPSGIPDRFSGSKSGTSATLGITGLQTGDEADYYCGTWDSSLSAVVFGGGTKLTVL
With B1 the Kd [1] was 100 pM and the 抗体滴度 (dilution factor (1:x) from 1 mg/mL) [2] was 320000.
